Results published in article PMC11640315.

Target: Retinoid X receptor of turbot, HA-tagged (pcDNA3.1-RXR-HA) (turbot (Scophthalmus maximus))

activity of the SHP promoter, dual-luciferase reporter assay in HEK293 cells; co-transfection of FXR and RXR plasmids against the FXR plasmid: 3 times
Substance: Farnesoid X receptor of turbot, Flag-tagged (pcDNA3.1-FXR-Flag)
